The values below come from patent US20050037961A1 (BAYLOR COLLEGE OF MEDICINE, published 2005).

Sequences and labels used below:
T1: endogenous SRF (αMHC-CRP2 mouse heart nuclear extract) (mouse, UniProt Q9JM73 1-504)
T1 sequence (looked up): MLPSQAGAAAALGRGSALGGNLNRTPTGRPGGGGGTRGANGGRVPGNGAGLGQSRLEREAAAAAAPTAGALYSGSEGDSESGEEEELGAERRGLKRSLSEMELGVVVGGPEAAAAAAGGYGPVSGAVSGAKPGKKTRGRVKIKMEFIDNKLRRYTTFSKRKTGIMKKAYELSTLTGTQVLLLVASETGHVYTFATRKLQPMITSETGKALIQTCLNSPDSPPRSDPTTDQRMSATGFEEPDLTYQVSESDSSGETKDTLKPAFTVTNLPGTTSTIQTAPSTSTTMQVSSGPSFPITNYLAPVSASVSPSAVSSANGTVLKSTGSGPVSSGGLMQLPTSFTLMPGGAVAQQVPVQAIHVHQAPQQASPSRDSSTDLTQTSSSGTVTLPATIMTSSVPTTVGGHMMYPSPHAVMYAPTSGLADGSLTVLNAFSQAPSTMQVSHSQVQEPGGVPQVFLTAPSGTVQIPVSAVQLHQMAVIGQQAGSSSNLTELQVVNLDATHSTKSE

T2: GST-SRF (human, UniProt P11831 1-508)
T2 construct: also called GST-SRF fusion protein; not shown: glutathione S-transferase encoded by vector pGEX-2T
T2 sequence (looked up): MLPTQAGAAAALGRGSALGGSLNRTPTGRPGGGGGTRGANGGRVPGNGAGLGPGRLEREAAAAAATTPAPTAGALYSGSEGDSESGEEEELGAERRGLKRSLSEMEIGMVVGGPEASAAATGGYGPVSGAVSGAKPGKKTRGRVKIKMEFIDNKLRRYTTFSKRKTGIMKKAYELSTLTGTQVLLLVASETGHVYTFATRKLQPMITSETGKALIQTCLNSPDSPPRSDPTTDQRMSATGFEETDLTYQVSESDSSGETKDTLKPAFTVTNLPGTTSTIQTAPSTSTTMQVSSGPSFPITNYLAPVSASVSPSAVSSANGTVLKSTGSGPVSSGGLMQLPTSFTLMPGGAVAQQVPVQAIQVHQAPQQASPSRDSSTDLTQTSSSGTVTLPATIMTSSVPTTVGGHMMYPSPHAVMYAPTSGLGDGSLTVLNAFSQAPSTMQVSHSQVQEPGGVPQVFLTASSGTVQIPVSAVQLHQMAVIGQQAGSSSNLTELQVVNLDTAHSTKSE

B1: Id1, endogenous cardiac bHLH transcription factor (other, mouse, UniProt P20067 1-168, looked up)
chain: MKVASGSAAAAAGPSCSLKAGRTAGEVVLGLSEQSVAISRCAGTRLPALLDEQQVNVLLYDMNGCYSRLKELVPTLPQNRKVSKVEILQHVIDYIRDLQLELNSESEVGTTGGRGLPVRAPLSTLNGEISALAAEVRSESEYYIILQWETEATGGGCPPSLLFRRIAI
B2: FLAG-tagged rat CRP2 (αMHC-CRP2 transgene) (other, UniProt Q62908 1-193, looked up, not shown: small tags and cut ends)
chain: MPVWGGGNKCGACGRTVYHAEEVQCDGRTFHRCCFLCMVCRKNLDSTTVAIHDEEIYCKSCYGKKYGPKGYGYGQGAGTLNMDRGERLGIKPESAQPHRPTTNPNTSKFAQKYGGAEKCSRCGDSVYAAEKIIGAGKPWHKNCFRCAKCGKSLESTTLTEKEGEIYCKGCYAKNFGPKGFGYGQGAGALVHAQ
notes: Expressed in cardiomyocytes of transgenic mice and assayed in nuclear and cytoplasmic heart extracts; also called FLAG-CRP2; FLAG-tagged CRP2
B3: CRP2ZF2+ZF3 (aa 35-145) (other, rat, UniProt Q62908 35-145, looked up, not shown: small tags and cut ends)
chain: FLCMVCRKNLDSTTVAIHDEEIYCKSCYGKKYGPKGYGYGQGAGTLNMDRGERLGIKPESAQPHRPTTNPNTSKFAQKYGGAEKCSRCGDSVYAAEKIIGAGKPWHKNCFR
notes: range 35-145; also called C2ZF2+ZF3

Experiment [1] addresses endogenous GATA6 (αMHC-CRP2 mouse heart nuclear extract) (mouse, UniProt Q61169 1-589, limits assumed). Nature of the experiment: co-IP from nuclear extracts of αMHC-CRP2 transgenic mouse hearts.
The target of experiment [2] is T1, endogenous SRF (αMHC-CRP2 mouse heart …). Described as above.
Experiment [3] deals with B2. Described as above.
Experiment [4] deals with T1, endogenous SRF (αMHC-CRP2 mouse heart …). Nature of the experiment: co-IP from nuclear extracts of αMHC-CRP2 transgenic mouse hearts, immunoblot. (In general: A western blot detects proteins with antibodies after separation by electrophoresis.)
Method: Right panels, co-immunoprecipitation were performed using ˜0.2 mg of cytoplasmic extracts (C.E.) and antibodies against FLAG-epitope, actinin or tubulin (lanes 7, 8 and 9, respectively). In lanes 4 and 10, no antibody was added in the immunoprecipitation step, serving as negative controls. In lanes 5, 6, 11 and 12, 10% of input proteins were loaded as positive controls. […] Bound proteins (lane 2-7) and 10% of input nuclear extracts (lane 1) were resolved on 4-20% SDS-PAGE gels and immunoblotted with antibodies against Brg1 (top panel) or Brm (bottom panel) of SWI/SNF remodeling complexes. […] Immune complexes were separated by 4-20% SDS-PAGE gels and immunoblotted with antibodies against V5 or Brg1.
In vivo co-immunoprecipitation (co-IP) was accomplished by enriching the starting materials in two steps. First, several whole heart were homogenized and centrifuged briefly to remove extracellular components. Cell pellet was then lysed and harvested separately for cytoplasmic and nuclear extracts.
The target in a further experiment is T2, GST-SRF. The experiment in a line: GST-SRF pull-down of 35S-labelled in vitro translated protein.

Chain of endogenous GATA6 (αMHC-CRP2 mouse heart nuclear extract) (Q61169 whole entry): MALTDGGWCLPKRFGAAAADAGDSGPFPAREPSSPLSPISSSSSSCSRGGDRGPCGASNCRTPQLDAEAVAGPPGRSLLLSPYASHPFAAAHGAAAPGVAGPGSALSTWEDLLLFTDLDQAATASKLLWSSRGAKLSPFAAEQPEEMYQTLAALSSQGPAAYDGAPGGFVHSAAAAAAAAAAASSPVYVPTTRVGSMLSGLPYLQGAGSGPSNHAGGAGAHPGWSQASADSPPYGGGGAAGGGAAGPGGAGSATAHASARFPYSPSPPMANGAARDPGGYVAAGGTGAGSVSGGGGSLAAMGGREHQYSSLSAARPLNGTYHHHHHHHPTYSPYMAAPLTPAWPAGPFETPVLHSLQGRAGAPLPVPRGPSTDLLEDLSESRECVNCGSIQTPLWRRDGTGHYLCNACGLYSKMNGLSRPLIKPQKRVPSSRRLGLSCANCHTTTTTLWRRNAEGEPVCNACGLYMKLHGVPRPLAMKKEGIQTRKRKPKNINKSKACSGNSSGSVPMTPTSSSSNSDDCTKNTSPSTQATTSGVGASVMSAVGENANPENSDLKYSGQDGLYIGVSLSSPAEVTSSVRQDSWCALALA
Method for GST-SRF: GST (lane 2) or MBP (lane 5) protein was used as negative control. The associated proteins were visualized by autoradiography. One-fifth the amount of labeled translated proteins was loaded as positive control (lane 1, 4). […] The associated proteins were visualized by autoradiography. One-fifth the amount of labeled translated proteins was loaded as positive control (lane 1).
In vitro translation of various [³⁵S] methionine-labeled protein products were performed using rabbit reticulocyte lysates from TnT In vitro Translation kit (Promega).

Take B1: the binding result in experiment [1], in experiment [2] and in experiment [3] was “no binding” throughout.
Turning to B2, the binding result in experiment [4] is listed as “binds”.
Consider B3, for which, in the experiment with GST-SRF, the binding result is given as “no binding”.
